Results on one substance are retold here after patent US20180371086A1.

This assay deals with HIV-1 Env gp120 of virus WITO, on infected cells (HIV-1). The assay is described as follows: cell-based or functional assay.

Substance PGT-121 (antibody) returned a killing EC50; HIV-infected CEM-NKr-CCR5-LucR CD4 T cells; PBMC donor 4176; virus WITO of more than 100 µg/mL and a killing EC50; HIV-infected CEM-NKr-CCR5-LucR CD4 T cells; PBMC donor 4288; virus WITO of more than 100 µg/mL.
